Data published in article PMC10602139, “Architecture and rearrangements of a sperm-specific Na^+/H^+ exchanger” (Research Square, 2023).
Substitutions are numbered along the chain they refer to. In names and notes the source's numbering stands.

Tests used:
[1] = molecular target: the molecule itself; assay: SEC; FSEC of eGFP fusion constructs affinity purified in digitonin micelles; Superose 6 10/300, GFP fluorescence detected
[2] = molecular target: the molecule itself; assay: SEC; FSEC, thermal disassembly: protein diluted 200-fold into destabilizing buffer pH 6 without or with cAMP (up to 5 mM), heated 10 min to the desired temperature; ratio of monomer to dimer species (ρ) against temperature; dimer to monomers
[3] = molecular target: the molecule itself; assay: cryo-EM structure; single-particle cryo-EM of purified protein in digitonin micelles; pH 8 or pH 6, NaCl or KCl; WT also with 5 mM cAMP at pH 6; C2 symmetry imposed

B1: sp9C1 truncated at amino acid position 657, eGFP fusion (domain or fragment, Strongylocentrotus purpuratus, UniProt A3RL54 30-657, looked up)
chain: SSGGSGHTPTTQATHADDHDLTTHNGTEEHDDGHDDGHDDLHAHAPKVIVFISGSCLFGAISRSLFKKLPIPYTVVLLILGAILGVVASNVPLVEEHTRDVAHMDPHVLLQIFLPVLIFESAFAMDVHTFMRSFSQVCILALFGLVVASVLTAVLAMNLFNYNWNFSEAMMFGAIMSATDPVAVVALLKDLGASKQLGTIIEGESLLNDGCAIVIFNVFMKMVFFPQLTSTVGQNVLYFLQVAVAGPLWGYAVAKVTVFFLSHIFNDALVEITITLAATYLTYYIGDIWLEVSGVLAVVVLGLIVNAEKTSISPEVEVFLHRFWEMLAYLANTLIFMMVGVVVTQKALVAVDKMDWFYLIILYLAITIIRGMVISLFSPILSRIGYGLTWRNAVIMTWGGLRGAVGLALALVVENLAGNDVIGSKFLFHTAGIVVLTLVINATTIQTLLRILGMSDISIPKRLAMAGAVRRIHEGQNRTLNMLKSDRFLADADWDIATAACEISDPYSALSDDENAPADELTLGERKSVCPGCKAMVPNEPSPREFADMMEEARLRMLKAEKISYWKQFEHGMLAREALRLLVQHAEVAADEKDQFILVDDLKKSWQIKGIYPWLKRKLEDLISEKKI
notes: the ARD is partly deleted; source: HEK293F, transiently transfected; not shown: mEGFP, C-terminal, kept; Twinstrep, C-terminal, kept
B1 was tested, and the “stoichiometry N” value [1] was 2.

B2: sp9C1 truncated at amino acid position 494, eGFP fusion (domain or fragment, Strongylocentrotus purpuratus, UniProt A3RL54 30-494, looked up)
chain: SSGGSGHTPTTQATHADDHDLTTHNGTEEHDDGHDDGHDDLHAHAPKVIVFISGSCLFGAISRSLFKKLPIPYTVVLLILGAILGVVASNVPLVEEHTRDVAHMDPHVLLQIFLPVLIFESAFAMDVHTFMRSFSQVCILALFGLVVASVLTAVLAMNLFNYNWNFSEAMMFGAIMSATDPVAVVALLKDLGASKQLGTIIEGESLLNDGCAIVIFNVFMKMVFFPQLTSTVGQNVLYFLQVAVAGPLWGYAVAKVTVFFLSHIFNDALVEITITLAATYLTYYIGDIWLEVSGVLAVVVLGLIVNAEKTSISPEVEVFLHRFWEMLAYLANTLIFMMVGVVVTQKALVAVDKMDWFYLIILYLAITIIRGMVISLFSPILSRIGYGLTWRNAVIMTWGGLRGAVGLALALVVENLAGNDVIGSKFLFHTAGIVVLTLVINATTIQTLLRILGMSDISIPKRLAM
notes: the ARD is deleted, the ion-exchange domain (ED) remains; source: HEK293F, transiently transfected; not shown: mEGFP, C-terminal, kept; Twinstrep, C-terminal, kept
For B2, the “stoichiometry N” value [1] was 2.

B3: sp9C1 truncated at amino acid position 950, eGFP fusion (domain or fragment, Strongylocentrotus purpuratus, UniProt A3RL54 30-950, looked up)
chain: SSGGSGHTPTTQATHADDHDLTTHNGTEEHDDGHDDGHDDLHAHAPKVIVFISGSCLFGAISRSLFKKLPIPYTVVLLILGAILGVVASNVPLVEEHTRDVAHMDPHVLLQIFLPVLIFESAFAMDVHTFMRSFSQVCILALFGLVVASVLTAVLAMNLFNYNWNFSEAMMFGAIMSATDPVAVVALLKDLGASKQLGTIIEGESLLNDGCAIVIFNVFMKMVFFPQLTSTVGQNVLYFLQVAVAGPLWGYAVAKVTVFFLSHIFNDALVEITITLAATYLTYYIGDIWLEVSGVLAVVVLGLIVNAEKTSISPEVEVFLHRFWEMLAYLANTLIFMMVGVVVTQKALVAVDKMDWFYLIILYLAITIIRGMVISLFSPILSRIGYGLTWRNAVIMTWGGLRGAVGLALALVVENLAGNDVIGSKFLFHTAGIVVLTLVINATTIQTLLRILGMSDISIPKRLAMAGAVRRIHEGQNRTLNMLKSDRFLADADWDIATAACEISDPYSALSDDENAPADELTLGERKSVCPGCKAMVPNEPSPREFADMMEEARLRMLKAEKISYWKQFEHGMLAREALRLLVQHAEVAADEKDQFILVDDLKKSWQIKGIYPWLKRKLEDLISEKKIAAIPMPKYKLGKLMYKICHHMAFEVTINIAIVLNIVPIIMEFVVQDKMASVSTMAAPGSTVSSEPSSLQKIEDALRISNYVFFVIYAIEAIVKILGLGRHYIVSHWNKFDAFILVVALVDIIIAETLLKGSITINLSSIKVVKLFRLLRGLRMLRLTKALIPKLILVVNGKINNQLSLGYDVGKGYIIGEEEVGKIIDRMVDNKKILRELKHISETGRLQVVKELGLLQREHPGIAVSVKTRQAIRTILNHSRETIHELQGAGLLDEMEAHKLELTVEIKMKRLMNAPSSIPP
notes: SLC9C1, Strongylocentrotus purpuratus, truncated at amino acid position 950; the CNBD, βR2 and the C-terminal tail are deleted; also called 950 construct; source: HEK293F, transiently transfected; not shown: mEGFP, C-terminal, kept; Twinstrep, C-terminal, kept
For B3, the “stoichiometry N” value [1] was 2.

B4: sp9C1-eGFP, full length (FSEC sample) (natural protein, Strongylocentrotus purpuratus, UniProt A3RL54 30-1325, looked up)
chain: SSGGSGHTPTTQATHADDHDLTTHNGTEEHDDGHDDGHDDLHAHAPKVIVFISGSCLFGAISRSLFKKLPIPYTVVLLILGAILGVVASNVPLVEEHTRDVAHMDPHVLLQIFLPVLIFESAFAMDVHTFMRSFSQVCILALFGLVVASVLTAVLAMNLFNYNWNFSEAMMFGAIMSATDPVAVVALLKDLGASKQLGTIIEGESLLNDGCAIVIFNVFMKMVFFPQLTSTVGQNVLYFLQVAVAGPLWGYAVAKVTVFFLSHIFNDALVEITITLAATYLTYYIGDIWLEVSGVLAVVVLGLIVNAEKTSISPEVEVFLHRFWEMLAYLANTLIFMMVGVVVTQKALVAVDKMDWFYLIILYLAITIIRGMVISLFSPILSRIGYGLTWRNAVIMTWGGLRGAVGLALALVVENLAGNDVIGSKFLFHTAGIVVLTLVINATTIQTLLRILGMSDISIPKRLAMAGAVRRIHEGQNRTLNMLKSDRFLADADWDIATAACEISDPYSALSDDENAPADELTLGERKSVCPGCKAMVPNEPSPREFADMMEEARLRMLKAEKISYWKQFEHGMLAREALRLLVQHAEVAADEKDQFILVDDLKKSWQIKGIYPWLKRKLEDLISEKKIAAIPMPKYKLGKLMYKICHHMAFEVTINIAIVLNIVPIIMEFVVQDKMASVSTMAAPGSTVSSEPSSLQKIEDALRISNYVFFVIYAIEAIVKILGLGRHYIVSHWNKFDAFILVVALVDIIIAETLLKGSITINLSSIKVVKLFRLLRGLRMLRLTKALIPKLILVVNGKINNQLSLGYDVGKGYIIGEEEVGKIIDRMVDNKKILRELKHISETGRLQVVKELGLLQREHPGIAVSVKTRQAIRTILNHSRETIHELQGAGLLDEMEAHKLELTVEIKMKRLMNAPSSIPPPPPENLLKNVSWLAGDMKLIDFIKARASLLHFDYGEVIVREGDESDGLFLIVSGLVKLYGKSAFLDHDNPPVTAGSEENEVFEDYLTVGNVIGEMGVLTKKPRNATVTCETTVQVYFITAEDMNIAIDTFTLYPSLEYRLWRVVAIRIATPLIMEQMAFQGWTQEKVKLHLERGYLVDLAESHFQFNIDATLEDVILINGTAYNAHTREEIRSPCLISRTVHKLTFQYTATEEPRLFVVRNAEYNGPILDGRLDVDSKRSLISITEISSNMCLKHAAELRQKNSKVMLSRKSSGAAAKEEEDCIPNTSDVEQAAGVSPSVPTKTTPKPKSFLPSLGLSMSKERVNGEAVEESPVKTKQGEETPETEEGAAPRVNV
notes: SLC9C1 (sperm-specific Na+/H+ exchanger), Strongylocentrotus purpuratus, full length; followed by a PreScission site and mEGFP-Twinstrep; A PreScission protease site lies between SLC9C1 and the mEGFP-Twinstrep tag; also called FL; FL-sp9C1; source: HEK293F, transiently transfected; not shown: mEGFP, C-terminal, kept; Twinstrep, C-terminal, kept
B4 was tested, and the “stoichiometry N” value [1] was 2, the “ρsat (saturating ratio of monomer to dimer species), 5 mM cAMP” value [2] was 2.4 and the “ρsat (saturating ratio of monomer to dimer species), cAMP-free” value [2] was about 0.9.

B5: sp9C1 R399A mutant, tag cleaved (cryo-EM sample) (natural protein, Strongylocentrotus purpuratus, UniProt A3RL54 30-1325, looked up)
chain: B4 chain with R370A
notes: SLC9C1, Strongylocentrotus purpuratus, full length with R399A; made in the background of the parent construct; source: HEK293F, transiently transfected; purified in digitonin (anti-GFP-nanobody resin, PreScission cleavage, gel filtration); not shown: mEGFP, C-terminal, cleaved; Twinstrep, C-terminal, cleaved
B5: binds [3].

B6: sp9C1 K880A mutant, eGFP fusion (natural protein, Strongylocentrotus purpuratus, UniProt A3RL54 30-1325, looked up)
chain: B4 chain with K851A
notes: SLC9C1, Strongylocentrotus purpuratus, with K880A; also called R880A (as printed once); source: HEK293F, transiently transfected; not shown: mEGFP, C-terminal, kept; Twinstrep, C-terminal, kept
B6: binds [2].

B7: sp9C1 Y1035C mutant, eGFP fusion (natural protein, Strongylocentrotus purpuratus, UniProt A3RL54 30-1325, looked up)
chain: B4 chain with Y1006C
notes: SLC9C1, Strongylocentrotus purpuratus, with Y1035C; source: HEK293F, transiently transfected; not shown: mEGFP, C-terminal, kept; Twinstrep, C-terminal, kept
B7: binds [2].
